The assay deals with recombinant spider silk protein eADF4(C16). The assay is described as follows: seeded turbidity kinetics at 340 nm; monomeric eADF4(C16) 10-40 uM with 0.5% or 30% (w/w) preformed seeds (sonicated mature fibrils of the same protein), 150 mM KPi pH 8.0, quiescent, 20-40 C; global fit with AmyloFit (secondary nucleation model).

These results are taken from paper PMC10364585.

Take “recombinant spider silk protein eADF4(C16)”: the rate constant for primary nucleation kn came out at 1e-09 M⁻¹ s⁻¹.
